First the molecules themselves.
B1: DARPin® protein #2 (designed binder)
chain: MRGSHHHHHHGSDLGYKLLQAAYDGQLDEVRILLKAGADVNAKDSRGQTPLHYAASIGHLEIVEVLLKAGADVNAKDDHGWTPLHLAAWSGHLEIVEVLLKAGADVNAQDQEGTTPADLAAVQGHQDIAEVLQKAA
notes: Parent of DARPin protein #24
B2: DARPin® protein #24 (designed binder)
chain: B1 chain with Y16I, Q20T, S45L, S56G, I57L, D78L, Q111V, T114V
notes: expressed as monovalent designed ankyrin repeat protein with N-terminal His-tag
B3: DARPin® protein #9 (designed binder)
chain: MRGSHHHHHHGSDLGKKLLQAARAGQLDEVRELLKAGADVNAKDQAGLTPLHIAAATGHLEIVEVLLKAGADVNAKDFSGLTPLHLAAFEGHLEIVEVLLKAGADVNAKDQHGQTPLHLAAWTGHLEIVEVLLKAGADVNAQDKSGKTPADLAARAGHQDIAEVLQKAA
notes: Parent of DARPin protein #25
B4: DARPin® protein #25 (designed binder)
chain: B3 chain with A46Q, A56N, T57L, F78L, S79F, Q114A, T123V
notes: as for B2
B5: DARPin® protein #11 (designed binder)
chain: MRGSHHHHHHGSDLGIKLLYAAYFGQDDEVRILLAAGADVNAKDWLGKTPLHLAATEGHLEIVEVLLKAGADVNAKDEWGETPLHKAAQEGHLEIVEVLLKAGADVNAQDSAGYTPADLAAQVGHEDIAEVLQKAA
B6: DARPin® protein #6 (designed binder)
chain: MRGSHHHHHHGSDLGKKLLEAARAGQDDEVRILLAAGTDVNAKDARGSTPLHVAAIHGHLEIVEVLLKAGADVNAKDTWGWTPLHLAAYAGHLEIVEVLLKAGADVNAQDEEGQTPADLAAFHGHEDIAEVLQKAA
B7: DARPin® protein #5 (designed binder)
chain: MRGSHHHHHHGSDLGFKLLQAALRGQLDEVRILLKAGADVNAKDQLGTTPLHLAAHYGHLEIVEVLLKAGADVNAKDVWGDTPLHLAAQHGHLEIVEVLLKAGADVNAQDRAGYTPADLAAQEGHEDIAEVLQKAA
B8: DARPin® protein #10 (designed binder)
chain: MRGSHHHHHHGSDLGFKLLNAAVQGQDDEVRILLAAGADVNAKDLRGTTPLHLAAQFGHLEIVEVLLKAGADVNAKDVWGATPLHLAAEHGHLEIVEVLLKAGADVNAQDNAGKTPADLAAQDGHEDIAEVLQKAA
B9: DARPin® protein #8 (designed binder)
chain: MRGSHHHHHHGSDLGHKLLFAAVRGQDDEVRILLAAGADVNAKDTRGVTPLHLAASWGHLEIVEVLLKAGADVNAKDELGNTPLHLAATDGHLEIVEVLLKAGADVNAQDWVGKTPADLAAWWGHEDIAEVLQKAA
B10: DARPin® protein #3 (designed binder)
chain: MRGSHHHHHHGSDLGQKLLHAAQVGQDDEVRILLAAGADVNAKDTRGITPLHDTAFYGHLEIVEVLLKAGADVNAKDVTGWTPLHLAAYTGHLEIVEVLLKAGADVNAQDNEGITPADLAAFHGHEDIAEVLQKAA
B11: DARPin® protein #7 (designed binder)
chain: MRGSHHHHHHGSDLGAKLLNAATVGQDDEVRILLAAGADVNAKDWSGQTPLHHAAYTGHLEIVEVLLKAGADVNAKDSWGWTPLHLAAYTGHLEIVEVLLKAGADVNAQDKEGSTPADLAAFHGHEDIAEVLQKAA
B12: DARPin® protein #12 (designed binder)
chain: MRGSHHHHHHGSDLGKKLLQAARAGQLDEVRELLKAGADVNAKDQTGYTPLHLAARHGHLEIVEVLLKAGADVNAKDEYGWTPLHIAAFIGPLEIVEVLLKAGADVNAKDEQGATPLHLAAWQGHLEIVEVLLKAGADVNAQDKSGKTPADLAARAGHQDIAEVLQKAA
B13: DARPin® protein #1 (designed binder)
chain: B1 chain with L27D, K35A, G124S, Q126E
B14: DARPin® protein #27 (designed binder)
chain: MRGSHHHHHHGSDLGKKLLQAARAGQLDEVRELLKAGADVNAKDQQGLTPLHIAANLGHLEIVEVLLKAGADVNAKDLFGLTPLHLAAFEGHLEIVEVLLKAGADVNAKDQHGATPLHLAAWVGHLEIVEVLLKAGADVNAQDKSGKTPADLAARAGHQDIAEVLQKAAGSPTPTPTTPTPTPTTPTPTPTGSDLGQKLLEAAWAGQDDEVRELLKAGADVNAKNSRGWTPLHTAAQTGHLEIFEVLLKAGADVNAKNDKRVTPLHLAAALGHLEIVEVLLKAGADVNARDSWGTTPADLAAKYGHQDIAEVLQKAA
B15: DARPin® protein #26 (designed binder)
chain: MRGSHHHHHHGSDLGIKLLTAAYDGQLDEVRILLKAGADVNAKDLRGQTPLHYAAGLGHLEIVEVLLKAGADVNAKDLHGWTPLHLAAWSGHLEIVEVLLKAGADVNAQDVEGVTPADLAAVQGHQDIAEVLQKAAGSPTPTPTTPTPTPTTPTPTPTGSDLGQKLLEAAWAGQDDEVRELLKAGADVNAKNSRGWTPLHTAAQTGHLEIFEVLLKAGADVNAKNDKRVTPLHLAAALGHLEIVEVLLKAGADVNARDSWGTTPADLAAKYGHQDIAEVLQKAA

Positions count from the first letter of the chain named.

This is an account of results in patent US20250074994A1 (Molecular Partners, published 2025).

In one experiment the target is T1, human CD70 expressed on Molm-13 tumor cells (human, UniProt P32970 1-193).
T1 construct: whole, on cells; also called CD70 expressed on the surface of cells; CD70-expressing tumor cells (Molm-13 N1)
T1 sequence (looked up): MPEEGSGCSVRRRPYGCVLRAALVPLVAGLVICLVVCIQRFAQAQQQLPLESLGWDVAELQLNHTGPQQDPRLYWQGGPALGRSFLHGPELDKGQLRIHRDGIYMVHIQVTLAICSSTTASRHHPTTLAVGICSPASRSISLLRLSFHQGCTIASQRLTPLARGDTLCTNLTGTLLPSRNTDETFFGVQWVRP
Nature of the experiment: flow cytometry (MFI) on CD70-expressing Molm-13 N1 tumor cells. The method, then:
Binding of binding proteins of the invention to CD70 expressed on the surface of cells was analyzed by fluorescence activated cell sorting (FACS) flow cytometry. For this purpose, CD70-expressing tumor cells (Molm-13 N1) were seeded at 100,000 cells per well in a 96 well plate. DARPin® protein #2, DARPin® protein #9, DARPin® protein #24 and DARPin® protein #25 were titrated down in 1:5 dilution ratio starting at 2000 nM. Tumor cells were resuspended with diluted DARPin proteins and incubated for 60 minutes at 4° C., The assay was performed in PBS including 2% fetal bovine serum without human serum albumin (HSA). After washing twice with Phosphate Buffer saline (PBS), DARPin® protein specific tumor cell binding was detected by adding unlabeled primary anti-rabbit DARPin® antibody (anti-rabbit 1-1-1 antibody, CePower) at 2 μg/ml. An incubation step of at least 30 minutes at 4° C. followed. Afterwards, cells were washed with PBS and a secondary goat anti-rabbit antibody labelled with Alexa Fluor 488 antibody (ThermoFisher) at 2 μg/ml was added. The same incubation conditions applied. Finally, the cells were washed twice and resuspended In Cytofix fixation buffer (BD Biosciences) for 15 min at room temperature (RT). Median fluorescence intensities (MFI) of Alexa Fluor 488 DARPin® protein labelled tumor cells were measured by Attune NXT (ThermoFisher) using FlowJo software for analyses and GraphPad Prism 8 for data plotting.
B1 had an EC50 of 4.9 nM.
The molecule B2 returned an EC50 of 5.2 nM.
B3 returned a concentration giving a half-maximal response (EC50) of 475 nM.
On the same count and under the same terms, for B4 the value was 27 nM.

In the next experiment the target is T2, biotinylated recombinant human CD70 (extracellular domain, Fc tag) (human, UniProt P32970 52-193, chemically biotinylated using 5-fold excess of Biotin).
T2 construct: Bought from ACROBiosystems; also called bio.hCD70; Bio.CD70; not shown: C-terminal Fc Tag of the bought protein (ACROBiosystems)
T2 sequence: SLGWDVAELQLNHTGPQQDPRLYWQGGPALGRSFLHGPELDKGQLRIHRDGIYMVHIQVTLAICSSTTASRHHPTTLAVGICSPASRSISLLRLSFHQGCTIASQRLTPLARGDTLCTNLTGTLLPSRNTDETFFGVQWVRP
The experiment is described as follows: SPR (ProteOn XPR36), bio.CD70 immobilized on NLC chip, DARPin as analyte. As for the experimental part:
The binding affinities of purified ankyrin repeat proteins on recombinant human CD70 target were analyzed using a ProteOn XPR36 instrument (BioRad) and the measurement was performed according standard procedures known to the person skilled in the art.
Bio.CD70 was immobilized on a NLC chip and the ankyrin repeat proteins were applied as titration with a starting concentration of 100 nM and then titrated down to 1.2 nM. The signals were double referenced against the PBST-treated control lane of L1 and A6. Analyte injection was performed for 120 s followed by a dissociation for 1500 s.
As to B5, the Kd worked out at 3 nM.
Regarding B6, the Kd was found to be 43 nM.
Still for that read-out and setting: for B1 the value was 0.45 nM; for B7, 5.8 nM; for B8, 16 nM.
B9: the Kd is 1.1 nM.
Turning to B3, the Kd was 27 nM.
For the molecule B10, the Kd amounted to 3.1 nM.
Regarding B11, the Kd was found to be 5.7 nM.
The same measure, in the same setting: the same measure for B12: 28 nM.

The target of the next experiment is T2, biotinylated recombinant human CD70 …. The experiment is described as follows: crude extract HTRF.
With B13, the binding result was “binds”.

A further experiment has the same target. Nature of the experiment: SPR, bio.hCD70 on neutravidin-coated GLC chip, DARPin as analyte, 1:1 Langmuir fit. The method, then:
Moreover, the binding affinities of two additional purified ankyrin repeat proteins on recombinant human CD70 target were measured and analyzed with a procedure as described above for DARPin proteins #2, #3, #5 to #12. Briefly, neutravidin was precoated on a GLC chip (BioRad) to a level of 5300 RU. In a second step, bio.hCD70 was immobilized to a level of 510 RU. The binding of DARPin protein #24 and DARPin protein #25 to bio.hCD70 was measured by Injecting the DARPin® molecule in a serial dilution of […]. For all described measurements, an association of 120 s and dissociation of 1200 s using a constant flow of 100 μl/min were applied. The CD70 target was regenerated with 4M MgCl₂ applied for 30s. The signals were double referenced against interspot and the running buffer (PBST: PBS pH 7.4 containing 0.005% […]) treated control lane A6. The 1:1 Langmuir model was used for the fitting.
Consider B2, for which the Kd came out at 0.0081 nM.
Regarding B4, the dissociation constant Kd came to 13 nM.

The target of another experiment is T1, human CD70 expressed on Molm-13 tumor …. The experiment is described as follows: cell-based or functional assay.
For the molecule B14, the “EC50 of in vitro T-cell activation and tumor cell killing (Molm-13-N1 target cells), improvement over the parental binding protein” value was approximately 31 fold.
The same measure, in the same setting: for B15 the value was approximately 7 fold.
